From article PMC6353875, “The EZH2 SANT1 domain is a histone reader providing sensitivity to the modification state of the H4 tail” (Scientific Reports, 2019)
Each block holds one binder with its values, some of them ahead of it.

Assays:
[1] = target: T1, EZH2 SRM-SANT1 (residues 141–251) (human, UniProt Q15910 141-251); assay: NMR titration; 15N-HSQC spectra of 0.05–0.10 mM 15N-EZH2 SRM-SANT1 with increasing concentrations of histone peptide; 25 °C; Kd from normalized CSPs, one-site model accounting for ligand depletion, averaged over significantly perturbed residues; details: both partners purified
T1 construct: Enhancer of Zeste Homologue 2 (EZH2), human, residues 141-251: stimulation response motif (SRM), linker and SANT1 domain; cDNA from OpenBiosystems; Uniformly 15N-enriched for the NMR titrations; untagged in the pull-down; also called EZH2 SANT1; source: E. coli Rosetta2 (DE3) pLysS, purified (glutathione agarose, PreScission cleavage, ion exchange, size exclusion); not shown: GST, N-terminal, …

[2] = target: T1, EZH2 SRM-SANT1 (residues 141–251); assay: pull-down; 1 μg purified untagged SRM-SANT1 with 1 μg biotin-tagged H4 peptide overnight at 4 °C in 150 mM NaCl, 50 mM Tris (pH 6.5), 3 mM DTT; captured on streptavidin sepharose, four washes, coomassie staining; triplicates quantified with ImageJ; details: both partners purified

T1 sequence (Q15910 141-251): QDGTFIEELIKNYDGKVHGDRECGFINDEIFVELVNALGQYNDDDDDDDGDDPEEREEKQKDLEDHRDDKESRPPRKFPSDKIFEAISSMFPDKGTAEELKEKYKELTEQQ

fold weaker than the H4 tail [1]: ~20 fold
B1: unmodified histone H2B peptide (residues 1–11) (peptide, UniProt P62807 2-12, looked up)
peptide: PEPAKSAPAPK
notes: histone H2B N-terminal tail, residues 1-11; also called H2B (1–11); H2B tail; source: synthetic peptide, bought: AnaSpec (65442-1)

Kd [1]: 700 ± 200 µM
B2: unmodified histone H4 peptide (residues 11–21) (peptide, UniProt P62805 12-22, looked up)
peptide: GKGGAKRHRKV
notes: histone H4, residues 11-21 (holds the basic patch); also called H4(11–21); source: synthetic peptide, custom synthesized by GenScript

binding result [2]: binds
B3: biotinylated unmodified histone H4 peptide (residues 11–27) (peptide, UniProt P62805 12-28, looked up)
peptide: GKGGAKRHRKVLRDNIQ
modifications: biotin (end not stated)
notes: histone H4, residues 11-27; also called unmodified H4 (11–27); source: synthetic peptide, bought: EpiCypher (SKU:12-0035)
